One substance from doi:10.1101/2021.12.29.474402 can be followed below.

The target in this assay is SARS-CoV-2 Omicron (B.1.1.529) spike, prefusion-stabilized soluble trimeric ectodomain (S-trimer) (SARS-CoV-2 | bacteriophage T4) (UniProt P0DTC2). The assay can be described thus: cryo-EM structure.

human ACE2, sequence (Q9BYF1 19-612): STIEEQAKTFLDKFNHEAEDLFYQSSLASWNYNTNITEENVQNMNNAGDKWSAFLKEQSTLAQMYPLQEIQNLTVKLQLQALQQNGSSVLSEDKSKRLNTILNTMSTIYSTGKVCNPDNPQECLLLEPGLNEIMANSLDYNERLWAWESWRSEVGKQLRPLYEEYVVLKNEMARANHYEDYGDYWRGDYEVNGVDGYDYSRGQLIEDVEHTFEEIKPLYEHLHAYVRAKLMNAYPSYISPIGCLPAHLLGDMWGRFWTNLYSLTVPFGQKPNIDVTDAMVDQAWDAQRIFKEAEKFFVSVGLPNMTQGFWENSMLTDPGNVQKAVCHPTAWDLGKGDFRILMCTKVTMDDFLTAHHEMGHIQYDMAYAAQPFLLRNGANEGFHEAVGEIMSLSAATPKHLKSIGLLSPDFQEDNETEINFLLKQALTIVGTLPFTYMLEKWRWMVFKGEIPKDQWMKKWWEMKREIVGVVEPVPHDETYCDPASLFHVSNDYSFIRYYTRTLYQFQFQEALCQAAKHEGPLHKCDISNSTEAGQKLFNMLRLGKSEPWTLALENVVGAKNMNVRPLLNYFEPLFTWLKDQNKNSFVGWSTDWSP

On to “human ACE2 (from UniProt Q9BYF1) (receptor)”, for which the stoichiometry N (ACE2 per S-trimer) stood at 2.
